Measurements taken from US20250163127A1 (published 2025).

T1: TIGIT (human, UniProt Q495A1)
T1 sequence: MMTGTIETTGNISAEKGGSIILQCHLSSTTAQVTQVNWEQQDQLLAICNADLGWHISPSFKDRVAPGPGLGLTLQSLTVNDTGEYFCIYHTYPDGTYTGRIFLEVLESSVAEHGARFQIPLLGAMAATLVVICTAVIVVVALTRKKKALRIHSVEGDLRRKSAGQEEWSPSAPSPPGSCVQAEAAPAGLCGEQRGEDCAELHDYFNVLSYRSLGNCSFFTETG

T2: human CD86 (human)
T2 chain: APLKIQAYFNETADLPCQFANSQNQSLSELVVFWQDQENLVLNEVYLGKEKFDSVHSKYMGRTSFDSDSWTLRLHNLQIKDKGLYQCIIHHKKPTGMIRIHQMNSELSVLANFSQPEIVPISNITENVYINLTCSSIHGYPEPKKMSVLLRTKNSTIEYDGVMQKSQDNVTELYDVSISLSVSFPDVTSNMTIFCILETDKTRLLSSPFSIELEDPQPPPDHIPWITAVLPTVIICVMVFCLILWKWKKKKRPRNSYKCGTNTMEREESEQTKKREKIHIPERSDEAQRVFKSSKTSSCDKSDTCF


What was measured:
Assay in all cases: cell-based or functional assay
PD-1 [1] = molecular target: T3, PD-1 (human, UniProt Q15116)
CD28 = CD28 (human, UniProt P10747)
TIGIT = molecular target: T1, TIGIT
PD-1 [2] = molecular target: T3, PD-1; remark: listed apart in the source
CD2 = CD2 (human, UniProt P06729)
human CD86 = molecular target: T2, human CD86

| % CD25 Hi FoxP3 + (PD-1 [1]) [% at 100 nM] | % CD25 Hi FoxP3 + (CD28) [% at 100 nM] | 100 nM IFN-gamma (pg/mL), SEB assay (PD-1 [2]) [pg/mL] | 100 nM IFN-gamma (pg/mL), SEB assay (CD2) [pg/mL] | Binder | also measured |
| --- | --- | --- | --- | --- | --- |
| 6.6 | 6.6 |  |  | PD-L1 303-ICOSL 2264-Fc (Fc fusion) FTVTVPKDLYVVEYGSNMTIECKFPVEKQLDLAALIVYWEMEGKDIIQFVHGEEDQKAQHSSYRQRARLLKDQLSLGNAALQITDVKLQDAGVYRCMISYGGGADYKRITVKVNAGSGGSGGGGSGGGGSDTQEKEVRAMVGSDVELSCACPEGSRFDLNDVYVYWQTSESKTVVTYHIPQHSSLEYVDSRYRNRALMSPAGMLRGDFSLRLFNVTPQDEQKFHCLVLSRSLGFQEVLSVEVTLHVAANFSVGGGGSGSGGGGSEPKSSDKTHTCPPCPAPEAEGAPSVFLFPPKPKDTLMISRTPEVTCVVVDVSHEDPEVKFNWYVDGVEVHNAKTKPREEQYNSTYRVVSVLTVLHQDWLNGKEYKCKVSNKALPAPIEKTISKAKGQPREPQVYTLPPSRDELTKNQVSLTCLVKGFYPSDIAVEWESNGQPENNYKTTPPVLDSDGSFFLYSKLTVDKSRWQQGNVFSCSVMHEALHNHYTQKSLSLSPG |  |
|  |  |  |  | CD 155 665 G4S FLAGHis (ligand) WPPPGTGDVVVQAPTQVSGFLGDSVTLPCYLQVPNMEVTHVSQLTWARHGESGSMAVFHQTQGPWYAESKRLEFVAARLGAELRNASLRVFGLRAEDEGNYTCQFVTFPQRSRSVDIWLRVLGGGGSDYKDDDDKHHHHHH | 100 nM IFN-gamma (pg/mL), SEB assay (TIGIT): 10300 pg/mL |
| 29.8 | 29.8 |  |  | PD-L1 303-ICOSL 2264-Fc + Fc (Fc fusion) chain 1: FTVTVPKDLYVVEYGSNMTIECKFPVEKQLDLAALIVYWEMEGKDIIQFVHGEEDQKAQHSSYRQRARLLKDQLSLGNAALQITDVKLQDAGVYRCMISYGGGADYKRITVKVNAGSGGGSGGGGSGGGGSDTQEKEVRAMVGSDVELSCACPEGSRFDLNDVYVYWQTSESKTVVTYHIPQHSSLEYVDSRYRNRALMSPAGMLRGDFSLRLFNVTPQDEQKFHCLVLSRSLGFQEVLSVEVTLHVAANFSVGGGGSGSGGGGSEPKSSDKTHTCPPCPAPEAEGAPSVFLFPPKPKDTLMISRTPEVTCVVVDVSHEDPEVKFNWYVDGVEVHNAKTKPREEQYNSTYRVVSVLTVLHQDWLNGKEYKCKVSNKALPAPIEKTISKAKGQPREPQVYTLPPCREEMTKNQVSLWCLVKGFYPSDIAVEWESNGQPENNYKTTPPVLDSDGSFFLYSKLTVDKSRWQQGNVFSCSVMHEALHNHYTQKSLSLSPGK chain 2: HMSSVSAQAAAEPKSSDKTHTCPPCPAPEAEGAPSVFLFPPKPKDTLMISRTPEVTCVVVDVSHEDPEVKFNWYVDGVEVHNAKTKPREEQYNSTYRVVSVLTVLHQDWLNGKEYKCKVSNKALPAPIEKTISKAKGQPREPQVCTLPPSREEMTKNQVSLSCAVKGFYPSDIAVEWESNGQPENNYKTTPPVLDSDGSFFLYSKLTVDKSRWQQGNVFSCSVMHEALHNHYTQKSLSLSPGK |  |
|  |  | 6030 | 6030 | CD58 3650-CD58 3650-PD-L1 303-PD-L1 303 (other) SQQIYGVVYGNVTFHVPSNVPLKEVLWKKQKDKVAELENSEFRAFSSFKNRVYLDTVSGSLTIYNLTSSDEDEYEMESPNITDTMKFFLYVLESGGGGSGGGGSGGGGSSQQIYGVVYGNVTFHVPSNVPLKEVLWKKQKDKVAELENSEFRAFSSFKNRVYLDTVSGSLTIYNLTSSDEDEYEMESPNITDTMKFFLYVLESGGGGSGGGGSGGGGSFTVTVPKDLYVVEYGSNMTIECKFPVEKQLDLAALIVYWEMEGKDIIQFVHGEEDQKAQHSSYRQRARLLKDQLSLGNAALQITDVKLQDAGVYRCMISYGGGADYKRITVKVNAGSGGSGGGGSGGGGSFTVTVPKDLYVVEYGSNMTIECKFPVEKQLDLAALIVYWEMEGKDIIQFVHGEEDQKAQHSSYRQRARLLKDQLSLGNAALQITDVKLQDAGVYRCMISYGGGADYKRITVKVNAGSGGGGSDYKDDDDKHHHHHH |  |
|  |  | 5440 | 5440 | CD58 3650-PD-L1 303-Fc (Fc fusion) SQQIYGVVYGNVTFHVPSNVPLKEVLWKKQKDKVAELENSEFRAFSSFKNRVYLDTVSGSLTIYNLTSSDEDEYEMESPNITDTMKFFLYVLESGGGGSGGGGSGGGGSFTVTVPKDLYVVEYGSNMTIECKFPVEKQLDLAALIVYWEMEGKDIIQFVHGEEDQKAQHSSYRQRARLLKDQLSLGNAALQITDVKLQDAGVYRCMISYGGGADYKRITVKVNAGSGGGGSEPKSSDKTHTCPPCPAPEAEGAPSVFLFPPKPKDTLMISRTPEVTCVVVDVSHEDPEVKFNWYVDGVEVHNAKTKPREEQYNSTYRVVSVLTVLHQDWLNGKEYKCKVSNKALPAPIEKTISKAKGQPREPQVYTLPPSRDELTKNQVSLTCLVKGFYPSDIAVEWESNGQPENNYKTTPPVLDSDGSFFLYSKLTVDKSRWQQGNVFSCSVMHEALHNHYTQKSLSLSPG |  |
| 21 | 21 |  |  | PD-L1 303-ICOSL 2264-COMP (other) FTVTVPKDLYVVEYGSNMTIECKFPVEKQLDLAALIVYWEMEGKDIIQFVHGEEDQKAQHSSYRQRARLLKDQLSLGNAALQITDVKLQDAGVYRCMISYGGGADYKRITVKVNAGGGGSGGGGSGGGGSDTQEKEVRAMVGSDVELSCACPEGSRFDLNDVYVYWQTSESKTVVTYHIPQHSSLEYVDSRYRNRALMSPAGMLRGDFSLRLFNVTPQDEQKFHCLVLSRSLGFQEVLSVEVTLHVAANFSVGGGGSGGGGSGGGGSDLGPQMLRELQETNAALQDVRELLRQQVREITFLKNTVMECDACGDYKDDDDKHHHHHH |  |
|  |  |  |  | CTLA-4 3060-CD155 665-Fc (Fc fusion) KAMHVAQPAVVFASSHGIASFVCEYASPWKATEVRVTVLRQADSQVTEVCAATYMTGNELTFLDDSICTGTSSGNQVNLTIQGLRAMDTGLYICKVEQMYPPPYLLGIGNGTQIYVIDPEPCPDSDGGGGSGGGGSGGGGSWPPPGTGDVVVQAPTQVSGFLGDSVTLPCYLQVPNMEVTHVSQLTWARHGESGSMAVFHQTQGPWYAESKRLEFVAARLGAELRNASLRVFGLRAEDEGNYTCQFVTFPQRSRSVDIWLRVLGSGGGGSEPKSSDKTHTCPPCPAPEAEGAPSVFLFPPKPKDTLMISRTPEVTCVVVDVSHEDPEVKFNWYVDGVEVHNAKTKPREEQYNSTYRVVSVLTVLHQDWLNGKEYKCKVSNKALPAPIEKTISKAKGQPREPQVYTLPPSRDELTKNQVSLTCLVKGFYPSDIAVEWESNGQPENNYKTTPPVLDSDGSFFLYSKLTVDKSRWQQGNVFSCSVMHEALHNHYTQKSLSLSPG | 100 nM IFN-gamma (pg/mL), SEB assay (TIGIT): 1900 pg/mL; 100 nM IFN-gamma (pg/mL), SEB assay (human CD86): 1900 pg/mL |
|  |  | 9820 | 9820 | PD-L1 303-CD58 3650-Fc (Fc fusion) FTVTVPKDLYVVEYGSNMTIECKFPVEKQLDLAALIVYWEMEGKDIIQFVHGEEDQKAQHSSYRQRARLLKDQLSLGNAALQITDVKLQDAGVYRCMISYGGGADYKRITVKVNAGGGGSGGGGSGGGGSSQQIYGVVYGNVTFHVPSNVPLKEVLWKKQKDKVAELENSEFRAFSSFKNRVYLDTVSGSLTIYNLTSSDEDEYEMESPNITDTMKFFLYVLESGSGGGGSEPKSSDKTHTCPPCPAPEAEGAPSVFLFPPKPKDTLMISRTPEVTCVVVDVSHEDPEVKFNWYVDGVEVHNAKTKPREEQYNSTYRVVSVLTVLHQDWLNGKEYKCKVSNKALPAPIEKTISKAKGQPREPQVYTLPPSRDELTKNQVSLTCLVKGFYPSDIAVEWESNGQPENNYKTTPPVLDSDGSFFLYSKLTVDKSRWQQGNVFSCSVMHEALHNHYTQKSLSLSPG |  |
|  |  | 16200 | 16200 | CD58 3650-PD-L1 303-PD-L1 303-CD58 3650 (other) SQQIYGVVYGNVTFHVPSNVPLKEVLWKKQKDKVAELENSEFRAFSSFKNRVYLDTVSGSLTIYNLTSSDEDEYEMESPNITDTMKFFLYVLESGGGGSGGGGSGGGGSFTVTVPKDLYVVEYGSNMTIECKFPVEKQLDLAALIVYWEMEGKDIIQFVHGEEDQKAQHSSYRQRARLLKDQLSLGNAALQITDVKLQDAGVYRCMISYGGGADYKRITVKVNAGGGGSGGGGSGGGGSFTVTVPKDLYVVEYGSNMTIECKFPVEKQLDLAALIVYWEMEGKDIIQFVHGEEDQKAQHSSYRQRARLLKDQLSLGNAALQITDVKLQDAGVYRCMISYGGGADYKRITVKVNAGSGGSGGGGSGGGGSSQQIYGVVYGNVTFHVPSNVPLKEVLWKKQKDKVAELENSEFRAFSSFKNRVYLDTVSGSLTIYNLTSSDEDEYEMESPNITDTMKFFLYVLESGSGGGGSDYKDDDDKHHHHHH |  |
| 21.7 | 21.7 |  |  | PD-L1 303-ICOSL 2264 (SEQ ID NO 3496) (other) FTVTVPKDLYVVEYGSNMTIECKFPVEKQLDLAALIVYWEMEGKDIIQFVHGEEDQKAQHSSYRQRARLLKDQLSLGNAALQITDVKLQDAGVYRCMISYGGGADYKRITVKVNAGSGGSGGGGSGGGGSDTQEKEVRAMVGSDVELSCACPEGSRFDLNDVYVYWQTSESKTVVTYHIPQHSSLEYVDSRYRNRALMSPAGMLRGDFSLRLFNVTPQDEQKFHCLVLSRSLGFQEVLSVEVTLHVAANFSVDYKDDDDKHHHHHH |  |
|  |  | 8620 | 8620 | PD-L1 303-PD-L1 303-CD58 3650-CD58 3650 (other) FTVTVPKDLYVVEYGSNMTIECKFPVEKQLDLAALIVYWEMEGKDIIQFVHGEEDQKAQHSSYRQRARLLKDQLSLGNAALQITDVKLQDAGVYRCMISYGGGADYKRITVKVNAGGGGSGGGGSGGGGSFTVTVPKDLYVVEYGSNMTIECKFPVEKQLDLAALIVYWEMEGKDIIQFVHGEEDQKAQHSSYRQRARLLKDQLSLGNAALQITDVKLQDAGVYRCMISYGGGADYKRITVKVNAGGGGSGGGGSGGGGSSQQIYGVVYGNVTFHVPSNVPLKEVLWKKQKDKVAELENSEFRAFSSFKNRVYLDTVSGSLTIYNLTSSDEDEYEMESPNITDTMKFFLYVLESGSGGSGGGGSGGGGSSQQIYGVVYGNVTFHVPSNVPLKEVLWKKQKDKVAELENSEFRAFSSFKNRVYLDTVSGSLTIYNLTSSDEDEYEMESPNITDTMKFFLYVLESGSGGGGSDYKDDDDKHHHHHH |  |
